Laboratory results: PMC6941993 (2020)

Target: stand-alone apical domain (sAD) designed from White-throated woodrat TfR1 (Neotoma albigula (White-throated …, N-linked glycan at Asn251 seen in the crystal)); two putative N-glycosylation sites (Asn204, Asn251), both partially glycosylated)
Assay: SPR

| Binder | Kd [nM] |
| --- | --- |
| GP1_(GTOV)–Fc (Fc fusion) ELPSLCRVNNSYSLIRLSHNSNQALSVEYVDVHPVLCSSSPTILDNYTQCIKGSPEFDWILGWTIKGLGHDFLRDPRICCEPKKTTNAEFTFQLNLTDSPETHHYRSKIEVGIRHLFGNYITNDSYSKMSVVMRNTTWEGQCSN | 360 |
| GP1_(SBAV)–Fc (Fc fusion) DHPTSCMVNHSTYYVHENKNATWCLEVSVTDVTLLMAEHDRQVLNNLSNCVHPAVEHRSRMVGLLEWIFRALKYDFNHDPTPLCQKQTSTVNETRVQINITEGFGSHGFEDTILQRLGVLFGSRIAFSNIQDLGKKRFLLIRNSTWKNQCEM | 63 |
